Test results reported in paper PMC11078181, “Genomic context– and H2AK119 ubiquitination–dependent inheritance of human Polycomb silencing” (Science Advances, 2024).

Target: T1, Strep-RBBP7 (UniProt Q16576 1-425)
T1 construct: called full-length in the results; also called full-length RBB7; source: HEK293FT, transiently transfected, purified (Strep-Tactin Sepharose, eluted with desthiobiotin)
Experiment: pull-down; GST or GST-BCORL(S1474-G1644) (0.1 μM) on Glutathione Sepharose 4B with Strep-RBBP7 (0.1 μM), lysis buffer with 0.1% Triton X-100, overnight at 4°C; stain-free SDS-PAGE
Conditions: both partners purified

T1 sequence (Q16576 whole entry): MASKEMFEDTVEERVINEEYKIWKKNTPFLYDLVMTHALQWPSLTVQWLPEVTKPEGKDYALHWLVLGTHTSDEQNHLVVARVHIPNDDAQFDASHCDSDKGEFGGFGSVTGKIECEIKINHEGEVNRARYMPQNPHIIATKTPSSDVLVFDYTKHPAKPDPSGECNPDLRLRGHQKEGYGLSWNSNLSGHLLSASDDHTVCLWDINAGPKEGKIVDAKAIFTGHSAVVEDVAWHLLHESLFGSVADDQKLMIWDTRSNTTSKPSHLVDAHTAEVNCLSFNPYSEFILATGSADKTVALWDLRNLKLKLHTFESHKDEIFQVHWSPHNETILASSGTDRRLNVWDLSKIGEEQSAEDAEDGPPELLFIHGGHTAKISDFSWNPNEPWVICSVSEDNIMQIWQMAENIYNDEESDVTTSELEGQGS

B1: GST-BCORL(S1474-G1644) (domain or fragment, UniProt Q5H9F3 1474-1644, looked up)
chain: SESPTARQIPPEARRLIVNKNAGETLLQRAARLGYKDVVLYCLQKDSEDVNHRDNAGYTALHEACSRGWTDILNILLEHGANVNCSAQDGTRPVHDAVVNDNLETIWLLLSYGADPTLATYSGQTAMKLASSDTMKRFLSDHLSDLQGRAEGDPGVSWDFYSSSVLEEKDG
notes: also called GST-BCORL fragment; source: E. coli BL21, purified (Glutathione Sepharose 4B, eluted with glutathione, dialysed); not shown: GST, N-terminal, kept
B1: binds.
